Patent US9969998B2, “Compositions of adenosine deaminase-2 (ADA2), variants thereof and methods of using same” (Halozyme, Inc., priority 2014, dated 2018)
Where a chain is given by its changes, count along the chain named. Names and notes keep the numbering of the source.

Legend:
[1] = Adenosine deaminase (ADA) enzymatic activity assay kit; type: biochemical; conditions: purified protein at 5 μg/mL; for % of WT activity: compared to WT-ADA2
Experimental: Adenosine deaminase activity was determined using an adenosine deaminase (ADA) assay kit (Genway, San Diego, Calif.; Cat. No. BQ014EALD) with minor modifications. The ADA assay is based on the enzymatic deamination of adenosine to inosine, which is converted to hypoxanthine by purine nucleoside phosphorylase (PNP). Hypoxanthine is then converted to uric acid and hydrogen peroxide by xanthine oxidase (XOD). Hydrogen peroxide is further reacted with N-Ethyl-N-(2-hydroxy-3-sulfopropyl)-3-methylaniline (EHSPT) and 4-aminoantipyrine (4-AA) in the presence of peroxidase (POD) to generate quinone dye, which is monitored in a kinetic manner.
Briefly, 5 μL samples in duplicates (at appropriate dilutions to measure steady-state, non-saturating enzyme activity) were added to 120 μL R1 reagent (provided by the manufacturer; 50 mM Tris HCL, pH 8.0, 2 mM 4-AA, 0.1 U/mL PNP, 0.2 U/mL XOD, 0.6 U/mL peroxidase) in a 96 well plate, according to manufacturer's instructions. The mixtures were incubated at 37° C. for approximately 5 min and 60 μL of R2 reagent (provided by the manufacturer; 50 mM Tris HCl, pH 4.0, 10 mM Adenosine, 2 mM EHSPT) was added to the mixtures. Then, change in absorbance (AA) at 556 nm over time at 37° C. was measured. One unit of ADA is the amount of ADA that generates one μmole of inosine from adenosine per minute at 37° C. Adenosine deaminase activity in mU/mL was calculated using the following formula: 1 mU/mL=(ΔA/min×Tv)/(Sv×ϵ×1) • where Tv=total volume (185 μL), Sv=sample volume (5 μL), ϵ=32.2×10^−3 μM^−1 cm^−1, 1=0.5 cm.
Adenosine deaminase activity of WT rHuADA2 and variants tested above were determined using the adenosine deaminase activity (ADA) assay described in Example 4. Activity was assessed on purified rHuADA2 WT and variants that were diluted to 5 μg/mL, and then serially diluted 2 fold to generate 4 measurements.
Adenosine deaminase activity of PEGylated rHuADA2 and variants was assessed using the method described in Example 4, and compared to the activity of the corresponding non-PEGylated form.
Selected candidate variants described in Table 8 above, containing an amino acid substitution in a residue that play a role in enzymatic activity, were assessed for their adenosine deaminase activity using the method described in Example 4. To perform the experiments, purified WT rHuADA2 and tested variants were prepared at 5 μg/mL concentration to normalize the amount of protein in each experiment.

[2] = Kinetic assessment of adenosine deaminase activity (ammonia assay, Michaelis-Menten); type: biochemical; conditions: [E] = 8.5 nM; for kcat: kcat=Vmax/0.0085/60
Experimental: Adenosine deaminase activity was determined by the measurement of ammonia released from adenosine when broken down to inosine. Ammonia was measured using a commercially available Ammonia Assay kit (Cat. No. AA0100, Sigma-Aldrich, St. Louis, Mo.). The kit contains dry reagents containing α-ketoglutaric acid and NADPH, which were reconstituted with 5 mL water prior to use in the assay. Ammonia reacts with α-ketogluaric acid (KGA) and reduced nicotinamide adenine dinucleotide phosphate (NADPH) in the presence of L-glutamate dehydrogenase (GDH).
Kinetics parameters of rHuADA2 WT and variants were compared using this assay at different adenosine concentrations at pH 7.6 and 6.5. Adenosine concentrations ranging from 20 μM to 20 mM were used. Sub-molar concentration of adenosine stock was prepared in 1N NaOH.
For the enzymatic assays at pH 7.6, adenosine was serially diluted with 100 mM sodium acetate (NaOAc), pH 4.9. A 2× reaction mixture was prepared, containing reconstituted ammonia assay reagent (containing about 4 mM α-ketoglutarate and about 300 μM NADPH), WT rHuADA2 or variants at 1 μg/mL (17 nM) and glutamate dehydrogenase (GDH, 1:50 dilution). 85 μL of adenosine was added to 85 μL 2× mixture in duplicate in a UV-transparent half-area plate. The change in absorbance (ΔA) at 340 nm over time at room temperature was monitored.
For the enzymatic assay at pH 6.5, adenosine was serially diluted with 200 mM piperazine-N,N′-bis(2-ethanesulfonic acid) (PIPES), pH 6.5. A 2× reaction mixture in 200 mM PIPES, pH 6.5 was prepared, containing 4 mM α-ketoglutarate, 300 μM NADPH, 1 μg/mL (17 nM) rHuADA2 or variants and 50 U/mL GDH (Cat No. G2626, Sigma-Aldrich). The enzymatic reaction was initiated by adding equal volume of adenosine to the 2× mixture in a UV-transparent half-area plate as described above, and the change in absorbance (AA) at 340 nm over time at room temperature was monitored.
Adenosine deaminase activity in mU/mL (μM/min equivalent) was calculated using the following formula: 1 mU/mL=−(−ΔA/min×Tv)/(Sv×ϵ×1) • where Tv=total volume (170 μL), Sv=sample volume (85 μL), ϵ=6.22×10^−3 μM^−1 cm^−1, 1=1 cm.
The activity data were fitted with non-linear regression of Michaelis-Menten equation using Graphpad Prism software to obtain Km and Vmax. Other kinetics parameters such as kcat and kcat/Km were also determined.

B1: H267A: ADA2 variant SEQ ID NO:34 (protein)
chain: IDETRAHLLLKEKMMRLGGRLVLNTKEELANERLMTLKIAEMKEAMRTLIFPPSMHFFQAKHLIERSQVFNILRMMPKGAALHLHDIGIVTMDWLVRNVTYRPHCHICFTPRGIMQFRFAHPTPRPSEKCSKWILLEDYRKRVQNVTEFDDSLLRNFTLVTQHPEVIYTNQNVVWSKFETIFFTISGLIHYAPVFRDYVFRSMQEFYEDNVLYMEIRARLLPVYELSGEHHDEEWSVKTYQEVAQKFVETHPEFIGIKIIYSDARSKDVAVIAESIRMAMGLRIKFPTVVAGFDLVGHEDTGHSLHDYKEALMIPAKDGVKLPYFFHAGETDWQGTSIDRNILDALMLNTTRIGHGFALSKHPAVRTYSWKKDIPIEVCPISNQVLKLVSDLRNHPVATLMATGHPMVISSDDPAMFGAKGLSYDFYEVFMGIGGMKADLRTLKQLAMNSIKYSTLLESEKNTFMEIWKKRWDKFIADVATK
modifications: human ADA2 H264A, mature numbering
- Adenosine deaminase activity mU/ml [1]: 70.9 mU/ml
- Adenosine deaminase activity ΔA/min [1]: 30.8 ΔA/min
- % of WT activity [1]: 91%

B2: H267Q: ADA2 variant SEQ ID NO:35 (protein)
chain: B1 chain with A264Q
modifications: human ADA2 H264Q, mature numbering
- Adenosine deaminase activity mU/ml [1]: 89.3 mU/ml
- Adenosine deaminase activity ΔA/min [1]: 38.8 ΔA/min
- % of WT activity [1]: 114%

B3: R222Q/K374E: ADA2 combination variant SEQ ID NO:263 (protein)
chain: B1 chain with R219Q, A264H, K371E
modifications: human ADA2 R219Q/K371E, mature numbering
- Km ([2]; pH 6.5): 990 µM
- Vmax ([2]; pH 6.5): 58.56 µM/min
- kcat ([2]; pH 6.5): 114.82 s⁻¹
- Km ([2]; pH 7.6): 1580 µM
- Vmax ([2]; pH 7.6): 87.27 µM/min
- kcat ([2]; pH 7.6): 171.12 s⁻¹

B4: R222Q/K374E/R23E: ADA2 combination variant SEQ ID NO:266 (protein)
chain: B1 chain with R20E, R219Q, A264H, K371E
modifications: human ADA2 R219Q/K371E/R20E, mature numbering
- Km ([2]; pH 6.5): 860 µM
- Vmax ([2]; pH 6.5): 54.48 µM/min
- kcat ([2]; pH 6.5): 106.82 s⁻¹
- Km ([2]; pH 7.6): 1920 µM
- Vmax ([2]; pH 7.6): 78.42 µM/min
- kcat ([2]; pH 7.6): 153.76 s⁻¹

B5: R222Q/S265N/K374E: ADA2 combination variant SEQ ID NO:268 (protein)
chain: B1 chain with R219Q, S262N, A264H, K371E
modifications: human ADA2 R219Q/S262N/K371E, mature numbering
- Km ([2]; pH 6.5): 800 µM
- Vmax ([2]; pH 6.5): 45.53 µM/min
- kcat ([2]; pH 6.5): 89.27 s⁻¹
- Km ([2]; pH 7.6): 1350 µM
- Vmax ([2]; pH 7.6): 65.43 µM/min
- kcat ([2]; pH 7.6): 128.29 s⁻¹

B6: R222Q/S265N/K374D: ADA2 combination variant SEQ ID NO:269 (protein)
chain: B1 chain with R219Q, S262N, A264H, K371D
modifications: human ADA2 R219Q/S262N/K371D, mature numbering
- Km ([2]; pH 6.5): 760 µM
- Vmax ([2]; pH 6.5): 50.89 µM/min
- kcat ([2]; pH 6.5): 99.78 s⁻¹
- Km ([2]; pH 7.6): 1190 µM
- Vmax ([2]; pH 7.6): 70.96 µM/min
- kcat ([2]; pH 7.6): 139.14 s⁻¹

B7: R222Q/S265N/K374D/R23E: ADA2 combination variant SEQ ID NO:272 (protein)
chain: B1 chain with R20E, R219Q, S262N, A264H, K371D
modifications: human ADA2 R219Q/S262N/K371D/R20E, mature numbering
- Km ([2]; pH 6.5): 810 µM
- Vmax ([2]; pH 6.5): 45.78 µM/min
- kcat ([2]; pH 6.5): 89.76 s⁻¹
- Km ([2]; pH 7.6): 1230 µM
- Vmax ([2]; pH 7.6): 72.58 µM/min
- kcat ([2]; pH 7.6): 142.31 s⁻¹

B8: R222Q/S265N/K374E/R23E: ADA2 combination variant SEQ ID NO:271 (protein)
chain: B1 chain with R20E, R219Q, S262N, A264H, K371E
modifications: human ADA2 R219Q/S262N/K371E/R20E, mature numbering
- Km ([2]; pH 6.5): 770 µM
- Vmax ([2]; pH 6.5): 54.82 µM/min
- kcat ([2]; pH 6.5): 107.49 s⁻¹
- Km ([2]; pH 7.6): 1240 µM
- Vmax ([2]; pH 7.6): 90.91 µM/min
- kcat ([2]; pH 7.6): 178.25 s⁻¹

B9: R222Q/K374D: ADA2 combination variant SEQ ID NO:264 (protein)
chain: B1 chain with R219Q, A264H, K371D
modifications: human ADA2 R219Q/K371D, mature numbering
- Km ([2]; pH 6.5): 790 µM
- Vmax ([2]; pH 6.5): 60.87 µM/min
- kcat ([2]; pH 6.5): 119.35 s⁻¹
- Km ([2]; pH 7.6): 1710 µM
- Vmax ([2]; pH 7.6): 77.01 µM/min
- kcat ([2]; pH 7.6): 151.00 s⁻¹

B10: R222Q/R23E: ADA2 combination variant SEQ ID NO:265 (protein)
chain: B1 chain with R20E, R219Q, A264H
modifications: human ADA2 R219Q/R20E, mature numbering
- Km ([2]; pH 6.5): 840 µM
- Vmax ([2]; pH 6.5): 60.47 µM/min
- kcat ([2]; pH 6.5): 118.57 s⁻¹
- Km ([2]; pH 7.6): 1460 µM
- Vmax ([2]; pH 7.6): 84.71 µM/min
- kcat ([2]; pH 7.6): 166.10 s⁻¹

B11: R222Q/S265N/R23E: ADA2 combination variant SEQ ID NO:270 (protein)
chain: B1 chain with R20E, R219Q, S262N, A264H
modifications: human ADA2 R219Q/S262N/R20E, mature numbering
- Km ([2]; pH 6.5): 1010 µM
- Vmax ([2]; pH 6.5): 40.59 µM/min
- kcat ([2]; pH 6.5): 79.59 s⁻¹
- Km ([2]; pH 7.6): 1290 µM
- Vmax ([2]; pH 7.6): 67.24 µM/min
- kcat ([2]; pH 7.6): 131.84 s⁻¹

B12: R222Q/K374D/R23E: ADA2 combination variant SEQ ID NO:267 (protein)
chain: B1 chain with R20E, R219Q, A264H, K371D
modifications: human ADA2 R219Q/K371D/R20E, mature numbering
- Km ([2]; pH 6.5): 670 µM
- Vmax ([2]; pH 6.5): 60.68 µM/min
- kcat ([2]; pH 6.5): 118.98 s⁻¹
- Km ([2]; pH 7.6): 1340 µM
- Vmax ([2]; pH 7.6): 88.43 µM/min
- kcat ([2]; pH 7.6): 173.39 s⁻¹
